Measurements as given in patent publication US6528283.

Columns and labels:
Experiment in all cases: cell-based or functional assay
Conditions in all cases: scale: β-galactosidase activity units
[1] = molecular target: mD52 bait (GAL4 DNA-binding domain fused to full-length mD52, pAS2-1mD52) (mouse)
[2] = molecular target: mD52(95-185) bait (GAL4 DNA-binding domain fused to the C-terminal half of mD52, pAS2-1mD52(95-185)) (mouse)
[3] = molecular target: mD52(1-95) bait (GAL4 DNA-binding domain fused to the N-terminal half of mD52, pAS2-1mD52(1-95)) (mouse)
[4] = molecular target: hD54+ins2 bait (GAL4 DNA-binding domain fused to hD54+ins2, pAS2-1hD54+ins2) (human)
[5] = molecular target: hD52 bait (GAL4 DNA-binding domain fused to full-length hD52, pAS2-1hD52) (human)
[6] = molecular target: hD54-ins2 bait (GAL4 DNA-binding domain fused to hD54-ins2, pAS2-1hD54-ins2) (human)
[7] = molecular target: hD53 bait (GAL4 DNA-binding domain fused to full-length hD53, pAS2-1hD53) (human)
[8] = molecular target: GAL4 DNA-binding domain alone (empty pAS2-1 vector, negative control bait) (UniProt P04386)
[9] = molecular target: mD52 bait (GAL4 DNA-binding domain fused to full-length mD52, pAS2-1mD52) (mouse); remark: listed apart in the source

| β-galactosidase activity, yeast two-hybrid (Y190) [1] | β-galactosidase activity, yeast two-hybrid (Y190) [2] | β-galactosidase activity, yeast two-hybrid (Y190) [3] | β-galactosidase activity, yeast two-hybrid (Y190) [4] | β-galactosidase activity, yeast two-hybrid (Y190) [5] | β-galactosidase activity, yeast two-hybrid (Y190) [6] | β-galactosidase activity, yeast two-hybrid (Y190) [7] | β-galactosidase activity, yeast two-hybrid (Y190) [8] | β-galactosidase activity, yeast two-hybrid (Y190) [9] | Substance |
| --- | --- | --- | --- | --- | --- | --- | --- | --- | --- |
| 0.34 | 0.23 | 0.36 | 0 | 0 | 0 | 0.14 | 0 | 0 | GAL4 activation domain alone (empty pACT2 vector, negative control interactor) (from UniProt P04386 768-881) |
|  |  |  | 0.85 | 0.87 | 1.74 | 3 | 0.17 | 0.16 | hD52 interactor (GAL4 activation domain fused to hD52, pAD-GAL4hD52, library clone starting at nt 46) (from UniProt P04386 761-881) |
|  |  |  | 5.98 | 2.03 | 3.51 | 6.01 | 0 | 0.48 | hD54+ins2 interactor (GAL4 activation domain fused to hD54+ins2, pACT2hD54+ins2) (from UniProt P04386 768-881) |
|  |  |  | 2.03 | 1.15 | 1.07 | 2.26 | 0.45 | 0.44 | hD54-ins2 interactor (GAL4 activation domain fused to hD54-ins2, pACT2hD54-ins2) (from UniProt P04386 768-881) |
|  |  |  | 4.25 | 1.3 | 2.37 | 5.71 | 0 | 0.42 | mD52(1-163) interactor (GAL4 activation domain fused to mD52 amino acids 1-163, pACT2mD52(1-163)) (from UniProt P04386 768-881) |
